From US20230047413A1
pKd: −log10 of the molar value.

Tests used:
[1] = biological target: PHF-tau (paired helical filament tau isolated from Alzheimer's disease brain) (human) (UniProt P10636); assay: SPR ProteOn, PHF-tau
[2] = biological target: tau seeds from spinal cords of P301S transgenic animals (human) (UniProt P10636); assay: cell-based or functional assay
[3] = biological target: tau seeds from GFP-tauP301L-overexpressing HEK cells (UniProt P10636); assay: cell-based or functional assay
[4] = biological target: tau seeds from cryopreserved human AD brain tissue (human) (UniProt P10636); assay: cell-based or functional assay
Chain of tau seeds from cryopreserved human AD brain tissue (human) (P10636 other isoform, or with tags, fused parts or gaps limits assumed): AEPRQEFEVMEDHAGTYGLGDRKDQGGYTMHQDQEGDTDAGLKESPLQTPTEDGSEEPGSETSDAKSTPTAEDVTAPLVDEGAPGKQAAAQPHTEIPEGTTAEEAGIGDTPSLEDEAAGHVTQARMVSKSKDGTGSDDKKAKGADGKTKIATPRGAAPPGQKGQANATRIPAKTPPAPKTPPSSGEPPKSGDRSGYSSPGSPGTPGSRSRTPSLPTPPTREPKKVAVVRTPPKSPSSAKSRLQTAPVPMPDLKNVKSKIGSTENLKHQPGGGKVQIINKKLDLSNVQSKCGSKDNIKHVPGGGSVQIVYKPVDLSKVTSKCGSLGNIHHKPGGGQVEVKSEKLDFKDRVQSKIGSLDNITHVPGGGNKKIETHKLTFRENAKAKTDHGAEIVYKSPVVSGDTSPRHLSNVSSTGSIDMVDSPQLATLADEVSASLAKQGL

[5] = biological target: PHF-tau (paired helical filament tau isolated from Alzheimer's disease brain) (human) (UniProt P10636); assay: SPR ProteOn, PHF-tau capture-coupled via HT7, bivalent model
[6] = biological target: recombinant human wild-type tau (Example 1) (human) (UniProt P10636); assay: SPR Biacore, recombinant tau
Chain of recombinant human wild-type tau (Example 1) (human) (P10636 other isoform, or with tags, fused parts or gaps limits assumed): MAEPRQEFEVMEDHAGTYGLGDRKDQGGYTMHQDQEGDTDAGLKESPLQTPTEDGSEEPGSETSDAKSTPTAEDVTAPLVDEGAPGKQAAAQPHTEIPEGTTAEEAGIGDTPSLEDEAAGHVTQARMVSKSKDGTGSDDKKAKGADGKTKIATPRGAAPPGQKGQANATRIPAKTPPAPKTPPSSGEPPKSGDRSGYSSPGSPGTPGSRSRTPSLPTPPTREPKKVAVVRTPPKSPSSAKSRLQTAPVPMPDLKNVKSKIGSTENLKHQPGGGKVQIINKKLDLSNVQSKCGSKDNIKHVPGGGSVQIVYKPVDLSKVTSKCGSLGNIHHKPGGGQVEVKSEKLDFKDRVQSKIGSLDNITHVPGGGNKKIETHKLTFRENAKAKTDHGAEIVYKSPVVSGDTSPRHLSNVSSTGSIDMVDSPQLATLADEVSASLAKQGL

Chain of tau seeds from spinal cords of P301S transgenic animals (human) (P10636 other isoform, or with tags, fused parts or gaps P301S P301S): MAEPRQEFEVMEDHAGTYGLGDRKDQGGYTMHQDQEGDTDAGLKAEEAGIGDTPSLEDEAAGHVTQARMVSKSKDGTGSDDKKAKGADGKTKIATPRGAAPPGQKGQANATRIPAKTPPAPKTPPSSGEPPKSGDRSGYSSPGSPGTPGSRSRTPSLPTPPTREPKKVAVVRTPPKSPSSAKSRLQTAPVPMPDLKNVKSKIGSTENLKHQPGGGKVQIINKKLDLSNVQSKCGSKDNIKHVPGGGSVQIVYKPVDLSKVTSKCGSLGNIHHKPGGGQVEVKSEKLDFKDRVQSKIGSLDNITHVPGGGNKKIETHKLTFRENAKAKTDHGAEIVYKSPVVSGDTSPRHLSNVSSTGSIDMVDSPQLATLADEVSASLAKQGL

pKd [1] | koff [1] [s⁻¹] | kon [1] [M⁻¹ s⁻¹] | FRET/P301S spinal cord immunodepletion assay, 300 nM antibody (% of negative control) [2] | inhibition of K18 aggregate induction, FRET/P301S spinal cord co-incubation assay, 300 nM antibody (% of negative control) [2] | inhibition of K18 aggregate induction, BRET/GFP-tauP301L co-incubation assay, 300 nM antibody (% of negative control) [3] | FRET/human AD brain homogenate immunodepletion assay, 300 nM antibody (% of negative control) [4] | pKd [5] | koff [5] [s⁻¹] | kon [5] [M⁻¹ s⁻¹] | inhibition of K18 aggregate induction, FRET/P301S spinal cord co-incubation assay, 89.99 nM antibody (% of negative control) [2] | inhibition of K18 aggregate induction, BRET/GFP-tauP301L co-incubation assay, 166.67 nM antibody (% of negative control) [3] | pKd [6] | koff [6] [s⁻¹] | kon [6] [M⁻¹ s⁻¹] | Substance
7.59 | 0.023 | 889000 |  |  |  |  |  |  |  |  |  |  |  |  | AT8 Fab
10.04 | 0.000211 | 2.3e+06 | 96.7 | 26.4 | 10.5 | 80.7 |  |  |  |  |  |  |  |  | AT8 mAb (hyb) (antibody)
9.88 | 9.26e-05 | 706000 | 99.2 |  |  | 83 | 9.71 | 0.00011 | 569000 | 73.5 | 65.4 | 8.52 | 0.0118 | 3.86e+06 | HT7 (antibody)
